{
  "source": "patent US20100130424A1",
  "about": "(Janssen / Centocor, published 2010)",
  "note": "No end group written: not given here. *: point of attachment. Succinimide(1-Et,3-yl) = CCN1C(=O)CC(*)C1=O",
  "data": [
    {"molecular_target": "T1, human CRH receptor type 2 (human, UniProt Q13324 1-411)", "T1 sequence (looked up)": "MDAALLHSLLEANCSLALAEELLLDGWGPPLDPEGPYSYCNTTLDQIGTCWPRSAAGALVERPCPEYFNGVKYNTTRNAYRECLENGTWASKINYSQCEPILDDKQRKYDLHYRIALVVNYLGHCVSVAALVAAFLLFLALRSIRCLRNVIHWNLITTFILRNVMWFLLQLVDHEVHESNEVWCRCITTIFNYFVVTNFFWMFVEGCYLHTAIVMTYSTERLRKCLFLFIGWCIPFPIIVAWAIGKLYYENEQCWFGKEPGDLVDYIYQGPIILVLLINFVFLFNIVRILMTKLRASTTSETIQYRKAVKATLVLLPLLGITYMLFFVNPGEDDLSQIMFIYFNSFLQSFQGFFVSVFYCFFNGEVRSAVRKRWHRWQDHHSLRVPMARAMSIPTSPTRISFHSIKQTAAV", "assay": "cell-based or functional assay", "units": {"Log DR against h-SCP, cAMP": "log10 ratio"}, "values": [
      {"binder": "TKFTLSLDVPTNIMNLLFNIAKAKNLRAQAAANAC(Succinimide(1-Et,3-yl))LMAQI-NH2 (N-terminus assumed; SMILES CC[C@H](C)[C@H](NC(=O)[C@H](CCC(N)=O)NC(=O)[C@H](C)NC(=O)[C@H](CCSC)NC(=O)[C@H](CC(C)C)NC(=O)[C@H](CSC1CC(=O)N(CC)C1=O)NC(=O)[C@H](C)NC(=O)[C@H](CC(N)=O)NC(=O)[C@H](C)NC(=O)[C@H](C)NC(=O)[C@H](C)NC(=O)[C@H](CCC(N)=O)NC(=O)[C@H](C)NC(=O)[C@H](CCCNC(=N)N)NC(=O)[C@H](CC(C)C)NC(=O)[C@H](CC(N)=O)NC(=O)[C@H](CCCCN)NC(=O)[C@H](C)NC(=O)[C@H](CCCCN)NC(=O)[C@H](C)NC(=O)[C@@H](NC(=O)[C@H](CC(N)=O)NC(=O)[C@H](Cc1ccccc1)NC(=O)[C@H](CC(C)C)NC(=O)[C@H](CC(C)C)NC(=O)[C@H](CC(N)=O)NC(=O)[C@H](CCSC)NC(=O)[C@@H](NC(=O)[C@H](CC(N)=O)NC(=O)[C@@H](NC(=O)[C@@H]1CCCN1C(=O)[C@@H](NC(=O)[C@H](CC(=O)O)NC(=O)[C@H](CC(C)C)NC(=O)[C@H](CO)NC(=O)[C@H](CC(C)C)NC(=O)[C@@H](NC(=O)[C@H](Cc1ccccc1)NC(=O)[C@H](CCCCN)NC(=O)[C@@H](N)[C@@H](C)O)[C@@H](C)O)C(C)C)[C@@H](C)O)[C@@H](C)CC)[C@@H](C)CC)C(N)=O)", "note": "[Cys-variant of stresscopin peptide with N-Ethylsuccinimide (NES) reactive group, SEQ ID NO: 43]", "Log DR against h-SCP, cAMP": -0.32, "pA50, cAMP": "9.79 -log M"},
      {"binder": "TKFTLSLDVPTNIMNLLFNIAKAKNLRAQAC(Succinimide(1-Et,3-yl))ANAHLMAQI-NH2 (N-terminus assumed; SMILES CC[C@H](C)[C@H](NC(=O)[C@H](CCC(N)=O)NC(=O)[C@H](C)NC(=O)[C@H](CCSC)NC(=O)[C@H](CC(C)C)NC(=O)[C@H](Cc1c[nH]cn1)NC(=O)[C@H](C)NC(=O)[C@H](CC(N)=O)NC(=O)[C@H](C)NC(=O)[C@H](CSC1CC(=O)N(CC)C1=O)NC(=O)[C@H](C)NC(=O)[C@H](CCC(N)=O)NC(=O)[C@H](C)NC(=O)[C@H](CCCNC(=N)N)NC(=O)[C@H](CC(C)C)NC(=O)[C@H](CC(N)=O)NC(=O)[C@H](CCCCN)NC(=O)[C@H](C)NC(=O)[C@H](CCCCN)NC(=O)[C@H](C)NC(=O)[C@@H](NC(=O)[C@H](CC(N)=O)NC(=O)[C@H](Cc1ccccc1)NC(=O)[C@H](CC(C)C)NC(=O)[C@H](CC(C)C)NC(=O)[C@H](CC(N)=O)NC(=O)[C@H](CCSC)NC(=O)[C@@H](NC(=O)[C@H](CC(N)=O)NC(=O)[C@@H](NC(=O)[C@@H]1CCCN1C(=O)[C@@H](NC(=O)[C@H](CC(=O)O)NC(=O)[C@H](CC(C)C)NC(=O)[C@H](CO)NC(=O)[C@H](CC(C)C)NC(=O)[C@@H](NC(=O)[C@H](Cc1ccccc1)NC(=O)[C@H](CCCCN)NC(=O)[C@@H](N)[C@@H](C)O)[C@@H](C)O)C(C)C)[C@@H](C)O)[C@@H](C)CC)[C@@H](C)CC)C(N)=O)", "note": "[Cys-variant of stresscopin peptide with N-Ethylsuccinimide (NES) reactive group, SEQ ID NO: 46]", "Log DR against h-SCP, cAMP": 0.04, "pA50, cAMP": "9.43 -log M"},
      {"binder": "TKFTLSLDVPTNIMNLLFNIAKAKNLRAQAAAC(Succinimide(1-Et,3-yl))AHLMAQI-NH2 (N-terminus assumed; SMILES CC[C@H](C)[C@H](NC(=O)[C@H](CCC(N)=O)NC(=O)[C@H](C)NC(=O)[C@H](CCSC)NC(=O)[C@H](CC(C)C)NC(=O)[C@H](Cc1c[nH]cn1)NC(=O)[C@H](C)NC(=O)[C@H](CSC1CC(=O)N(CC)C1=O)NC(=O)[C@H](C)NC(=O)[C@H](C)NC(=O)[C@H](C)NC(=O)[C@H](CCC(N)=O)NC(=O)[C@H](C)NC(=O)[C@H](CCCNC(=N)N)NC(=O)[C@H](CC(C)C)NC(=O)[C@H](CC(N)=O)NC(=O)[C@H](CCCCN)NC(=O)[C@H](C)NC(=O)[C@H](CCCCN)NC(=O)[C@H](C)NC(=O)[C@@H](NC(=O)[C@H](CC(N)=O)NC(=O)[C@H](Cc1ccccc1)NC(=O)[C@H](CC(C)C)NC(=O)[C@H](CC(C)C)NC(=O)[C@H](CC(N)=O)NC(=O)[C@H](CCSC)NC(=O)[C@@H](NC(=O)[C@H](CC(N)=O)NC(=O)[C@@H](NC(=O)[C@@H]1CCCN1C(=O)[C@@H](NC(=O)[C@H](CC(=O)O)NC(=O)[C@H](CC(C)C)NC(=O)[C@H](CO)NC(=O)[C@H](CC(C)C)NC(=O)[C@@H](NC(=O)[C@H](Cc1ccccc1)NC(=O)[C@H](CCCCN)NC(=O)[C@@H](N)[C@@H](C)O)[C@@H](C)O)C(C)C)[C@@H](C)O)[C@@H](C)CC)[C@@H](C)CC)C(N)=O)", "note": "[Cys-variant of stresscopin peptide with N-Ethylsuccinimide (NES) reactive group, SEQ ID NO: 44]", "Log DR against h-SCP, cAMP": "~1.97", "pA50, cAMP": "~7.5 -log M"},
      {"binder": "TKFTLSLDVPTNIMNLLFNIAKAKNLRCQAAANAHLMAQI (NES-PEG MW5000 on Cys 28; C-terminal amide)", "note": "[Pegylated Cys-variant CRHR2 peptide agonist (NES-PEG MW5000), SEQ ID NO: 96]", "Log DR against h-SCP, cAMP": 1, "pA50, cAMP": "8.74 -log M"},
      {"binder": "TKFTLSLDVPTNIMNLLFNIAKAKNLRCQAAANAHLMAQI (NES-PEG MW40000 on Cys 28; C-terminal amide)", "note": "[Pegylated Cys-variant CRHR2 peptide agonist (NES-PEG MW40000), SEQ ID NO: 100]", "Log DR against h-SCP, cAMP": 1.1, "pA50, cAMP": "8.64 -log M"},
      {"binder": "TKFTLSLDVPTNIMNLLFNIAKAKNLRCQAAANAHLMAQI (NES-PEG MW30000 on Cys 28; C-terminal amide)", "note": "[Pegylated Cys-variant CRHR2 peptide agonist (NES-PEG MW30000), SEQ ID NO: 99]", "Log DR against h-SCP, cAMP": 0.8, "pA50, cAMP": "8.94 -log M"},
      {"binder": "TKFTLSLDVPTNIMNLLFNIAKAKNLRCQAAANAHLMAQI (NES-PEG-NEM MW20000 on Cys 28 (double-ended linear PEG with an N-Ethylmaleimide cap at the non-linked end); C-terminal amide)", "note": "[Pegylated Cys-variant CRHR2 peptide agonist (NES-PEG-NEM MW20000), SEQ ID NO: 98]", "Log DR against h-SCP, cAMP": 0.18, "pA50, cAMP": "9.5 -log M"},
      {"binder": "TKFTLSLDVPTNIMNLLFNIAKAKNLRCQAAANAHLMAQI (NES-PEG MW12000 on Cys 28; C-terminal amide)", "note": "[Pegylated Cys-variant CRHR2 peptide agonist (NES-PEG MW12000), SEQ ID NO: 97]", "Log DR against h-SCP, cAMP": "~0.74", "pA50, cAMP": "~9 -log M"},
      {"binder": "TKFTLSLDVPTNIMNLLFNIAKAKNLRAQAAC(Succinimide(1-Et,3-yl))NAHLMAQI-NH2 (N-terminus assumed; SMILES CC[C@H](C)[C@H](NC(=O)[C@H](CCC(N)=O)NC(=O)[C@H](C)NC(=O)[C@H](CCSC)NC(=O)[C@H](CC(C)C)NC(=O)[C@H](Cc1c[nH]cn1)NC(=O)[C@H](C)NC(=O)[C@H](CC(N)=O)NC(=O)[C@H](CSC1CC(=O)N(CC)C1=O)NC(=O)[C@H](C)NC(=O)[C@H](C)NC(=O)[C@H](CCC(N)=O)NC(=O)[C@H](C)NC(=O)[C@H](CCCNC(=N)N)NC(=O)[C@H](CC(C)C)NC(=O)[C@H](CC(N)=O)NC(=O)[C@H](CCCCN)NC(=O)[C@H](C)NC(=O)[C@H](CCCCN)NC(=O)[C@H](C)NC(=O)[C@@H](NC(=O)[C@H](CC(N)=O)NC(=O)[C@H](Cc1ccccc1)NC(=O)[C@H](CC(C)C)NC(=O)[C@H](CC(C)C)NC(=O)[C@H](CC(N)=O)NC(=O)[C@H](CCSC)NC(=O)[C@@H](NC(=O)[C@H](CC(N)=O)NC(=O)[C@@H](NC(=O)[C@@H]1CCCN1C(=O)[C@@H](NC(=O)[C@H](CC(=O)O)NC(=O)[C@H](CC(C)C)NC(=O)[C@H](CO)NC(=O)[C@H](CC(C)C)NC(=O)[C@@H](NC(=O)[C@H](Cc1ccccc1)NC(=O)[C@H](CCCCN)NC(=O)[C@@H](N)[C@@H](C)O)[C@@H](C)O)C(C)C)[C@@H](C)O)[C@@H](C)CC)[C@@H](C)CC)C(N)=O)", "note": "[Cys-variant of stresscopin peptide with N-Ethylsuccinimide (NES) reactive group, SEQ ID NO: 45]", "Log DR against h-SCP, cAMP": -0.01, "pA50, cAMP": "9.48 -log M"},
      {"binder": "TKFTLSLDVPTNIMNLLFNIAKAKNLRAQAAANAHLMAQC(Succinimide(1-Et,3-yl))-NH2 (N-terminus assumed; SMILES CC[C@H](C)[C@H](NC(=O)[C@H](CC(N)=O)NC(=O)[C@H](Cc1ccccc1)NC(=O)[C@H](CC(C)C)NC(=O)[C@H](CC(C)C)NC(=O)[C@H](CC(N)=O)NC(=O)[C@H](CCSC)NC(=O)[C@@H](NC(=O)[C@H](CC(N)=O)NC(=O)[C@@H](NC(=O)[C@@H]1CCCN1C(=O)[C@@H](NC(=O)[C@H](CC(=O)O)NC(=O)[C@H](CC(C)C)NC(=O)[C@H](CO)NC(=O)[C@H](CC(C)C)NC(=O)[C@@H](NC(=O)[C@H](Cc1ccccc1)NC(=O)[C@H](CCCCN)NC(=O)[C@@H](N)[C@@H](C)O)[C@@H](C)O)C(C)C)[C@@H](C)O)[C@@H](C)CC)C(=O)N[C@@H](C)C(=O)N[C@@H](CCCCN)C(=O)N[C@@H](C)C(=O)N[C@@H](CCCCN)C(=O)N[C@@H](CC(N)=O)C(=O)N[C@@H](CC(C)C)C(=O)N[C@@H](CCCNC(=N)N)C(=O)N[C@@H](C)C(=O)N[C@@H](CCC(N)=O)C(=O)N[C@@H](C)C(=O)N[C@@H](C)C(=O)N[C@@H](C)C(=O)N[C@@H](CC(N)=O)C(=O)N[C@@H](C)C(=O)N[C@@H](Cc1c[nH]cn1)C(=O)N[C@@H](CC(C)C)C(=O)N[C@@H](CCSC)C(=O)N[C@@H](C)C(=O)N[C@@H](CCC(N)=O)C(=O)N[C@@H](CSC1CC(=O)N(CC)C1=O)C(N)=O)", "note": "[Cys-variant of stresscopin peptide with N-Ethylsuccinimide (NES) reactive group, SEQ ID NO: 42]", "Log DR against h-SCP, cAMP": "~1.72", "pA50, cAMP": "~7.75 -log M"}
    ]}
  ]
}
